{"source": "patent US10670612B2", "about": "“Immunoassay standards and measurement of clinical biomarkers using intra-assay calibration standards” (Saladax Biomedical, Inc., priority 2010, dated 2020)", "test": "Dynamic light scattering", "format": "physicochemical", "conditions": "phosphate buffer pH 7.4, 25° C.", "protocol": "One set was prepared at 1.0 mg/ml, the second set was prepared at 0.10 mg/ml, and stored at room temperature. Peptides were dissolved by vortexing for 1 min, and centrifuged in a microcentrifuge for 5 min at 14,000 rpm, at room temperature. For Aβ42 samples (MSD), vials containing 0.1 mg peptide were suspended in 1.0 ml buffer, and treated as above. A volume (200 μl) of each centrifuged 1.0 mg/ml stock was transferred to a 0.5 ml polypropylene tube, and provided for NMR analysis.\nThe absorbance spectra of all samples were recorded (220-750 nm) using a NANODROP® ND-1000 instrument, and blanked against the buffer. Dynamic light scattering analysis was conducted on the peptides in a 384 well polystyrene plate (CORNING®, type 3540) with a Wyatt DLS DynaPro plate reader. Data collection and analysis was completed using software from the manufacturer (DYNAMICS, versions 7.0.0.94 and 7.0.1.12). Each peptide was evaluated in triplicate with 30 μl loaded per well, and overlaid with 5 μl mineral oil, to minimize evaporation. Buffer blanks were also included in the analysis for comparison. After loading the plate, a transparent adhesive sealing tape cover was applied to the plate and the plate was centrifuged for 2 min at 1000 rpm. Each sample on the plate was read 30 times, 5 sec per acquisition, maintaining a temperature of 25° C. Data sets were collected on both the 1.0 mg/ml and 0.10 mg/ml samples over the course of 27 days. The adhesive cover was removed to read the samples in the plate reader, and used to cover the plate between readings over the 27 day time course.\nFIGS. 7A through 7F show dynamic light scattering data. In FIGS. 7A-F, the full length Aβ42 peptide was subjected to DLS analysis and compared to four representative modified peptides. […] FIG. 7a represents the raw data accumulated for all five peptides. Shown is the intensity autocorrelation versus time. […] FIGS. 7b-7f depict the percent mass versus the radius of the peptides. Monomeric peptides would be represented by a larger percent mass at the smaller radius size.", "note": "Ends that are not written are not given here.", "data": [{"sequence": "DAEFRHDSGYEVHHQKEERPIGLMVGGVVIA (not fully specified) [GS#4, native Aβ42 amino acids (1-16)-EERP-native Aβ42 amino acids (32-42)]", "values": [{"measurement": "% Intensity", "setting": "DLS Peak 1", "value": 3.8, "unit": "%"}, {"measurement": "% Mass", "setting": "DLS Peak 1", "value": 97.7, "unit": "%"}, {"measurement": "% Pd", "setting": "DLS Peak 1", "value": 3.2, "unit": "%"}, {"measurement": "Mw-R", "setting": "DLS Peak 1", "value": 6.0, "unit": "kDa"}, {"measurement": "Radius", "setting": "DLS Peak 1", "value": 1.3, "unit": "nm"}, {"measurement": "% Intensity", "setting": "DLS Peak 2", "value": 0.6, "unit": "%"}, {"measurement": "% Mass", "setting": "DLS Peak 2", "value": 0.2, "unit": "%"}, {"measurement": "% Pd", "setting": "DLS Peak 2", "value": 0.0, "unit": "%"}, {"measurement": "Mw-R", "setting": "DLS Peak 2", "value": 225.0, "unit": "kDa"}, {"measurement": "Radius", "setting": "DLS Peak 2", "value": 6.0, "unit": "nm"}, {"measurement": "% Intensity", "setting": "DLS Peak 3", "value": 5.2, "unit": "%"}, {"measurement": "% Mass", "setting": "DLS Peak 3", "value": 0.0, "unit": "%"}, {"measurement": "% Pd", "setting": "DLS Peak 3", "value": 4.5, "unit": "%"}, {"measurement": "Mw-R", "setting": "DLS Peak 3", "value": 7527.0, "unit": "kDa"}, {"measurement": "Radius", "setting": "DLS Peak 3", "value": 27.0, "unit": "nm"}, {"measurement": "% Intensity", "setting": "DLS Peak 4", "value": 25.1, "unit": "%"}, {"measurement": "% Mass", "setting": "DLS Peak 4", "value": 0.2, "unit": "%"}, {"measurement": "% Pd", "setting": "DLS Peak 4", "value": 4.3, "unit": "%"}, {"measurement": "Mw-R", "setting": "DLS Peak 4", "value": 283287.0, "unit": "kDa"}, {"measurement": "Radius", "setting": "DLS Peak 4", "value": 127.0, "unit": "nm"}]}]}
